Data taken from US20050130265A1.

Molecular target: Aiolos (mouse) (UniProt O08900)
Experiment: cell-based or functional assay

Aiolos (mouse), sequence (O08900 other isoform, or with tags, fused parts or gaps limits assumed): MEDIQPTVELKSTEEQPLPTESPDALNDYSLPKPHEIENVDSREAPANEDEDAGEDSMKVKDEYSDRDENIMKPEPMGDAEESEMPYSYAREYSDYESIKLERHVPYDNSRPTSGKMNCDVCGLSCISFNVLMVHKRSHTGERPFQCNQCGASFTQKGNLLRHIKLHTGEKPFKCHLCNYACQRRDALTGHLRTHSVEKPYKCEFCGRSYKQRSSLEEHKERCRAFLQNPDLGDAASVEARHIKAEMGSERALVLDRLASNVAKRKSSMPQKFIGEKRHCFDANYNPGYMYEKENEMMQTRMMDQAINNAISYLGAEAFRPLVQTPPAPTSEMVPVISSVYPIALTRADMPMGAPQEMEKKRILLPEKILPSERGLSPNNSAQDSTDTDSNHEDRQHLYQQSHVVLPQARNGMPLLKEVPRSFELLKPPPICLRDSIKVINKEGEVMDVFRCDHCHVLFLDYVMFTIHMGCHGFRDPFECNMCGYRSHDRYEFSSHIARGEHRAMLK

Substance: Ikaros isoform Ik-6 (from UniProt Q03267 1-288)
- CAT activity from the 4xIK-BS1-tkCAT reporter in transfected NIH-3T3 cells: 65 % reduction
